Numbering of substitutions follows the chain as printed.
B1: MK-7C3 (antibody, V domains shown)
VH: EVQLLETGGGVVQPGRSLRLSCVASGFTFRSHGMHWVRQAPGKGLEWVALIWYDGSKKYYADSVKGRFTISRDNSKNTLYLQMNSLRAEDTAVYYCARVGAGLYLDYWGQGTLVTVSS
VL: AIRMTQSPSTLSASVGDRVTITCRASQTISNWLAWFQQKPGKAPKVLIYKASSLESGVPSRFSGSGSGTEFTLTISSLQPDDFASYYCQQYNSYSYTFGQGTRLEIK
B2: MK-24C10 (antibody, V domains shown)
VH: QVQLVESGGGVVQPGRSLRLSCAASGFTFSSYGMHWVRQAPGKGLEWVAVIWFDGTNKHYADSVKGRFTISRDNSKNTLYLQMNSLRAEDTAVYYCARDKGEWFGELRYYYYGMDVWGQGTTVTVSS
VL: not shown
B3: GK-22G12 (antibody, V domains shown)
VH: EVQLVESGGGLVQSGGSLRLSCAASGFTFSSQRLSWVRQAPGKGLEWVANIKQDGSEKNYVDSVRGRFTISRDIAKNSLYLQMNSLRAEDTAVYYCARDGYRNGWHIPEDYWGQGTLVTVSS
VL: DIVMTQSPSSLSASVGDRVTITCRASQGISNYLAWYQQKPGKVPKLLIYAASTLQSGVPSRFSGSGSGTDFTLTISSLQPEDVSTYYCQKHNRAPWTFGQGTKLEIK
B4: GK-1E5 (antibody, V domains shown)
VH: EVQLVESGGGVVQPGRSLRLSCAASGFTFRSYGMHWVRQAPGKGLEWVAIIWYDGSKKYYTDSVQGRFTISRDNSKNTLYLQMNSLRAEDTAVYYCARPGIAMTGLDYWGQGTLVTVSS
VL: DIQLTQSPSTLSASVGDRVTITCRASQSISSWLAWYQQKPGKAPKLLIYKASSLESGVPSRFSGSGSGTEFTLTISSLQPDDFATYYCQQYNNYWTFGQGTKVEIK
B5: GK-2G8 (antibody, V domains shown)
VH: B4 VH with E1Q, V5Q, Q65K, I101V, Y108L
VL: B4 VL with D1E, Q3V, L4M, E104D
B6: GK-5A1 (antibody, V domains shown)
VH: QVQLVESGGGVVQPGRSLRLSCAASGFTFSSYGMYWVRQAPGKGLEWVAVIWNDGSNKYYADSVKGRFTISRDNSKNTLYLQMNSLRAEDTAVYYCAREGSGWYDYYYGMDVWGQGTTVTVSS
VL: B4 VL with D1E, Q3V, N93S, E104D
B7: MK-3B12 (antibody, V domains shown)
VH: EVQLVESGPGLLKPSETLSLTCAVSGYSISSGYYWGWIRQPPGKGLEWIGSIYQSGSTHYNPSLKSRVTISVDTSKNQFSLKLTSVTAADTAVYYCAREDRAGWYPFDCWGQGTLVTVSS
VL: B4 VL with Q3V, L4M
B8: GK-5E1 (antibody, V domains shown)
VH: QVTLKESGGDVVQPGRSLRLSCAASGFTFRTYGMHWVRQAPGKGPEWVALIWYDGSKKYYADSVKGRFTISRDNSKNTLYLQMNSLRAEDTAVYYCVRVRFGELYFQHWGQGTLVTVSS
VL: not shown
B9: GK-5G12 (antibody, V domains shown)
VH: B8 VH with V2I, D10G, P45L, K57N, V97I, R100K, E103D
VL: B3 VL with D1E, M4L, S84A, H91Y, R93S, W96Y

What follows are binders tested against T1, hROR2-ECD-Twin-Strep (soluble human ROR2 extracellular domain fused to a Twin-Strep-tag) (Homo sapiens (Human)., UniProt Q01974) (assay: SPR; multi-cycle SPR, Biacore T200; antibodies captured on a CM5 Protein A chip or by Protein G immobilized on a CM5 chip (capture levels 148 to 845 RU); hROR2-ECD-Twin-Strep as analyte, 2-fold serial dilutions 40 nM to 2.5 nM in running buffer). Settings: both partners purified.
T1 construct: signal peptide in the construct; extracellular domain of human receptor tyrosine kinase-like orphan receptor 2 (ROR2), NP_004551.2, amino acids 1-403; Gene synthesis (GenScript), vector pCB14b; also called hROR2-Twin-Strep; human ROR2-ECD-Twin-Strep; not shown: Twin-Strep-tag, C-terminal, kept
T1 sequence (Q01974 34-403): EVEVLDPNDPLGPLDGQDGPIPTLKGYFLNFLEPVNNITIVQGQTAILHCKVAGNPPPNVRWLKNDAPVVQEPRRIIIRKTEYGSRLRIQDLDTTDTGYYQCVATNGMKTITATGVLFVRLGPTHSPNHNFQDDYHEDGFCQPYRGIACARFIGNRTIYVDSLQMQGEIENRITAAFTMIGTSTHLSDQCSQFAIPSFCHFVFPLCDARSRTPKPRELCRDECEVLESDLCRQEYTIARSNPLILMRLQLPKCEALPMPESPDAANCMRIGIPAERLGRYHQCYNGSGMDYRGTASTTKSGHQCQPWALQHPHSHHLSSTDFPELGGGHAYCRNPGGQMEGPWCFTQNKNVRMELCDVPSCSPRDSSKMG

Row | binding result | Binder
1 | binds | B1
2 | binds | B2
3 | binds | B3

The binders below were run against T1, hROR2-ECD-Twin-Strep (soluble human …) (assay: ELISA; MaxiSorp plates coated with 2 μg/ml antigen in 100 mM bicarbonate/carbonate buffer; purified monoclonal antibodies from 0.5-2 μg/ml in serial dilutions in PBS-T/1% BSA, 1 h at 37°C; detected with HRP-conjugated F(ab')2 anti-human Fcγ). Settings: both partners purified.

Row | binding result | Binder
4 | binds | B4
5 | binds | B5
6 | binds | B6
7 | binds | B7
8 | binds | B8
9 | binds | B9

From PMC6224377 (Frontiers in Immunology, 2018)
